Experiment [1] addresses HER2 on HT29 cells (human) (UniProt P04626). The experiment is described as follows: flow cytometry on HT29 cells, anti-HER2 PerCP/Cy5.5 at 1:20. (In general: A flow cytometer gives signals particle by particle.)
The target of experiment [2] is HER2 on MDA-MB-175 cells (human) (UniProt P04626). Kind of experiment: flow cytometry on MDA-MB-175 cells, anti-HER2 PerCP/Cy5.5 at 1:20.
In experiment [3] the target is HER2 on JIMT-1 cells (human) (UniProt P04626). The experiment is described as follows: flow cytometry on JIMT-1 cells, anti-HER2 PerCP/Cy5.5 at 1:20.
Experiment [4] concerns the target HER2 on MDA-MB-231 cells (human) (UniProt P04626). Kind of experiment: flow cytometry on MDA-MB-231 cells, anti-HER2 PerCP/Cy5.5 at 1:20.
Experiment [5] deals with HER2 on SKOV3 cells (human) (UniProt P04626). The experiment is described as follows: flow cytometry on SKOV3 cells, anti-HER2 PerCP/Cy5.5 at 1:20.
Experiment [6] has as its target HER2 on MDA-MB-231 cells (human) (UniProt P04626). Kind of experiment: flow cytometry on MDA-MB-231 cells, isotype ctrl PerCP/Cy5.5.
The target of experiment [7] is HER2 on MDA-MB-175 cells (human) (UniProt P04626). The experiment is described as follows: flow cytometry on MDA-MB-175 cells, isotype ctrl PerCP/Cy5.5.
Experiment [8] addresses HER2 on SKOV3 cells (human) (UniProt P04626). Kind of experiment: flow cytometry on SKOV3 cells, isotype ctrl PerCP/Cy5.5.
In experiment [9] the target is HER2 on HT29 cells (human) (UniProt P04626). Kind of experiment: flow cytometry on HT29 cells, isotype ctrl PerCP/Cy5.5.
For experiment [10], the target named is HER2 on JIMT-1 cells (human) (UniProt P04626). The experiment is described as follows: flow cytometry on JIMT-1 cells, isotype ctrl PerCP/Cy5.5.
Experiment [11] deals with full length human CD16b stably expressed on transduced WT Jurkat cells (human) (UniProt O75015). Kind of experiment: flow cytometry on CD16b-transduced WT Jurkat cells stained with anti-CD16 (axis printed VL1-A :: CD16-eFluor 450-A).
Sequence of full length human CD16b stably expressed on transduced WT Jurkat cells (human) (O75015 17-200): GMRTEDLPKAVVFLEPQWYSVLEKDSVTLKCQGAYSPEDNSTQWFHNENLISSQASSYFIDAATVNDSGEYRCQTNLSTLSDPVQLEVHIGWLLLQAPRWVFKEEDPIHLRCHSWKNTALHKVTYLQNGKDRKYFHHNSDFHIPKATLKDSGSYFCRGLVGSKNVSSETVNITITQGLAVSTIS

For “HER2 (Anti-Her2 PerCP/Cy5.5, BioLegend #324416) (antibody)”, the Median : BL3-A in experiment [1] stood at 2230; in experiment [2] it was 6860; in experiment [3] it was 10300; in experiment [4], 1240; in experiment [5], 25400.
Turning to “iso ctrl (Isotype ctrl PerCP/Cy5.5 antibody)”, the Median : BL3-A in experiment [6] is 520; in experiment [7], 331; in [8] it was 491; in [9], 361; in experiment [10] it was 306.
In experiment [11], “CD16-BV421 (BV421 mouse anti-human CD16 clone 3G8, BD Biosciences) (antibody)” showed a CD16 gate (percent of cells) of 100.

The values are drawn from US20260250338A1.
